Measured values: patent US20090118161A1 (BAYLOR COLLEGE OF MEDICINE, published 2009)

T1: immobilized human fibrinogen (human, UniProt P02671 20-629; P02675 31-491; P02679 27-437, limits assumed)
T1 sequence (looked up) 1: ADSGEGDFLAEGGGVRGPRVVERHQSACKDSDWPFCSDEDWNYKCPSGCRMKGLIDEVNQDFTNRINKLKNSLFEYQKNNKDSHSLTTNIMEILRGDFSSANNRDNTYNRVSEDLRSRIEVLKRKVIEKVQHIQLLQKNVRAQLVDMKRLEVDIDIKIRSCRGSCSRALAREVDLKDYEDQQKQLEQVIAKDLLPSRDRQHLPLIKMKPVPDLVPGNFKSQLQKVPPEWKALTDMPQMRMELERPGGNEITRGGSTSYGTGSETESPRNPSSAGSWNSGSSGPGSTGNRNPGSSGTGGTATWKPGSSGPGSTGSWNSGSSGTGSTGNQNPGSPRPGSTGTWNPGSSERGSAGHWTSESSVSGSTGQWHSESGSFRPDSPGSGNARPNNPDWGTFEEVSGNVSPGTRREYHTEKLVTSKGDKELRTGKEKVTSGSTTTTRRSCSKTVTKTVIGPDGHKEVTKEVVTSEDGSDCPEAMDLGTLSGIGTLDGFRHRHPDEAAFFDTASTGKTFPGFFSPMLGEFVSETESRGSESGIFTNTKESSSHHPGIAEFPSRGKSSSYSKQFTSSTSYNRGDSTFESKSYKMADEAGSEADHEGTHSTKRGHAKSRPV
T1 sequence (looked up) 2: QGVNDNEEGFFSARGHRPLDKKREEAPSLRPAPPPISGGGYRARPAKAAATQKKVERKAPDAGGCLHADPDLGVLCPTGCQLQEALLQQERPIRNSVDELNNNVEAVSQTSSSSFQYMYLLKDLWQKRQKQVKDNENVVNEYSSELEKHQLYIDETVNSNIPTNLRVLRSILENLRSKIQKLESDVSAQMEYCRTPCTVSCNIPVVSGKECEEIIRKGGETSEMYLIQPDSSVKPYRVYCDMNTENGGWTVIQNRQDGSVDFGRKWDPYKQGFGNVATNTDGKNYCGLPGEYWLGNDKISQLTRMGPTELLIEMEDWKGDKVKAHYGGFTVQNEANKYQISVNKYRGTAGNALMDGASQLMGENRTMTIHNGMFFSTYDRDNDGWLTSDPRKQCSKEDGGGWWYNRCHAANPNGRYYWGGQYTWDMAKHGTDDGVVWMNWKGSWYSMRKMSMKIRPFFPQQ
T1 sequence (looked up) 3: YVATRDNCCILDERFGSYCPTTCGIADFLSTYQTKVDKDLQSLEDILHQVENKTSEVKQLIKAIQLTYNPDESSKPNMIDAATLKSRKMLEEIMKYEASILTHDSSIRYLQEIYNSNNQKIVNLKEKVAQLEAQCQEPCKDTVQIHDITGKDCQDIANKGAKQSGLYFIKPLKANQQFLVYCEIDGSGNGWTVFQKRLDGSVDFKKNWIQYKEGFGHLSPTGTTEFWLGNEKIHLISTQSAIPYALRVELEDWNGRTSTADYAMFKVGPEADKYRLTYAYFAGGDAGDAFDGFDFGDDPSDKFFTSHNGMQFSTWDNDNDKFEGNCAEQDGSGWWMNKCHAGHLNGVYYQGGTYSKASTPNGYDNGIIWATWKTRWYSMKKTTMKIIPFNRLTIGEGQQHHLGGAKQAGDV

T2: polymerized human fibrin (human, UniProt P02671 36-629; P02675 45-491; P02679 27-437, limits assumed)
T2 construct: Immobilized polymerized fibrin; preparation not described
T2 sequence (looked up) 1: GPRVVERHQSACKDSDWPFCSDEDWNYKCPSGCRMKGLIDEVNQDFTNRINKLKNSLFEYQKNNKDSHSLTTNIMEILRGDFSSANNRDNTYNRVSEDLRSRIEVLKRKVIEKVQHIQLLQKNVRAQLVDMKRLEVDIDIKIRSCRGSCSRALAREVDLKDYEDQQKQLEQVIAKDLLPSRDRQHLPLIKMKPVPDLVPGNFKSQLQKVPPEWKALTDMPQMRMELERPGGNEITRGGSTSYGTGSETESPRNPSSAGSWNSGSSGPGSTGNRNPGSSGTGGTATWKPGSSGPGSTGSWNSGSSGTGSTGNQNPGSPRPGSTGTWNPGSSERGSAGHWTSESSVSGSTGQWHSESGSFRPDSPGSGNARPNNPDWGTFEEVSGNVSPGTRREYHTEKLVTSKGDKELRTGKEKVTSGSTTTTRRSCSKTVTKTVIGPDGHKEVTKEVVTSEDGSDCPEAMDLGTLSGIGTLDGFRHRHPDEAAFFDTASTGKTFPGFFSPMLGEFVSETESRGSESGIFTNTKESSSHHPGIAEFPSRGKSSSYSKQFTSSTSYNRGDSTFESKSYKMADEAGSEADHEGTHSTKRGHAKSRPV
T2 sequence (looked up) 2: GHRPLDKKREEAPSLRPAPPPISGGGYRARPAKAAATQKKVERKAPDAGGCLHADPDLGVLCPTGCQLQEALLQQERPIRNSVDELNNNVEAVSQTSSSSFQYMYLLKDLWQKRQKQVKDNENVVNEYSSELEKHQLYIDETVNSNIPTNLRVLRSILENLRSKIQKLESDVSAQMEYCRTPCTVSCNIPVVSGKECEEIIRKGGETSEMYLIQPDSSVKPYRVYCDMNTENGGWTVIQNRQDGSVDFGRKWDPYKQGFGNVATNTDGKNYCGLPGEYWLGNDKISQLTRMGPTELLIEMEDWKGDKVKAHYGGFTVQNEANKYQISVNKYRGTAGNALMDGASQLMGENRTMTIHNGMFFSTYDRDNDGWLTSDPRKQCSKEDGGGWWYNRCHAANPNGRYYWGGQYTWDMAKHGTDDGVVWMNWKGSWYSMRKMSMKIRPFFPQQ
T2 sequence (looked up) 3: T1 sequence (looked up) 3

B1: recombinant VWF-A2 domain polypeptide (amino acids G1481-R1668) (other)
chain: GLLGVSTLGPKRNSMVLDVAFVLEGSDKIGEADFNRSKEFMEEVIQRMDVGQDSIHVTVLQYSYMVTVEYPFSEAQSKGDILQRVREIRYQGGNRTNTGLALRYLSDHSFLVSQGDREQAPNLVYMVTGNPASDEIKRLPGDIQVVPIGVGPNANVQELERIGWPNAPILIQDFETLPREAPDLVLQR
notes: Expressed in E. coli as a fusion protein with a His tag at the N terminus; monomeric on SDS-PAGE; also called A2 protein; VWF-A2 protein; not shown: N-terminal His tag from the vector
B2: N-terminal fragment polypeptide of A2 (A2 G1481-Y1605) (other)
chain: GLLGVSTLGPKRNSMVLDVAFVLEGSDKIGEADFNRSKEFMEEVIQRMDVGQDSIHVTVLQYSYMVTVEYPFSEAQSKGDILQRVREIRYQGGNRTNTGLALRYLSDHSFLVSQGDREQAPNLVY
notes: Expressed in bacteria; also called N-terminal (half) of the A2 domain of VWF

How the values were obtained:
[1] = molecular target: T3, recombinant VWF-A1 domain polypeptide (amino acids Q1238-P1471) (human, UniProt P04275 1238-1471); assay: ELISA, A2 on immobilized A1; apparent KD
T3 construct: range 1238-1471; Expressed in E. coli with an N-terminal His tag; also called A1 polypeptide; A1 protein; not shown: N-terminal His tag from the vector

[2] = molecular target: T4, multimeric von Willebrand factor purified from plasma or cryoprecipitate (UniProt P04275 764-2813); assay: ELISA, A2 on immobilized VWF; apparent KD
T4 construct: mature; Disulfide-linked multimer of many subunits; number of subunits not fixed; Glycosylated; also called VWF; full length VWF

[3] = molecular target: T4, multimeric von Willebrand factor …; assay: binding of A2 to full length VWF; half-maximal binding
[4] = molecular target: T3, recombinant VWF-A1 domain polypeptide …; assay: binding of A2 to A1 domain polypeptide; half-maximal binding
[5] = molecular target: T4, multimeric von Willebrand factor …; assay: binding of A2 to immobilized full length VWF; half-maximal binding
[6] = molecular target: T3, recombinant VWF-A1 domain polypeptide …; assay: binding of A2 to immobilized A1 domain polypeptide; half-maximal binding
[7] = molecular target: T5, recombinant human vimentin (human, UniProt P08670 1-466, limits assumed); assay: ELISA, A2 on immobilized recombinant human vimentin, detected with Anti-A2 or VP-1
T5 construct: also called immobilized vimentin

[8] = molecular target: T4, multimeric von Willebrand factor …; assay: ELISA, increasing A2 on immobilized plasma VWF, anti-His detection; half-maximal binding
[9] = molecular target: T3, recombinant VWF-A1 domain polypeptide …; assay: ELISA, increasing A2 on immobilized A1 polypeptide, Anti-A2 detection; half-maximal binding
[10] = molecular target: T1, immobilized human fibrinogen; assay: ELISA, increasing A2 on immobilized human fibrin(ogen), anti-His detection; half-maximal binding
polymerized human fibrin = molecular target: T2, polymerized human fibrin; assay: ELISA, increasing A2 on immobilized polymerized human fibrin, anti-His detection; half-maximal binding
[11] = molecular target: T3, recombinant VWF-A1 domain polypeptide …; assay: inhibition by A2 of binding of A1 domain (0.25 µM) to immobilized fixed platelets (GPIbα), static conditions
[12] = molecular target: T5, recombinant human vimentin; assay: ELISA, A2 fragments on immobilized vimentin

T5 sequence (P08670 whole entry): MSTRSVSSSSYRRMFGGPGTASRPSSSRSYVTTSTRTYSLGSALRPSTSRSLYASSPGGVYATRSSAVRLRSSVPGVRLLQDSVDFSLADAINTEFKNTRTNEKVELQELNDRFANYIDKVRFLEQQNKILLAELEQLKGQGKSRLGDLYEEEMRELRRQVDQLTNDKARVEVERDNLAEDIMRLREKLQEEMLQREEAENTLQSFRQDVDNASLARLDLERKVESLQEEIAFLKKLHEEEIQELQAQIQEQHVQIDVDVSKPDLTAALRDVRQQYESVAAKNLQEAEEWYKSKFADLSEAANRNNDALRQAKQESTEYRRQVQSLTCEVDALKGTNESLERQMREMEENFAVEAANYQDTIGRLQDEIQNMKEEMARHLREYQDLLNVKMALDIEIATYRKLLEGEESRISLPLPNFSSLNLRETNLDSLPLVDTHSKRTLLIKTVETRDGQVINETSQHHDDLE

Binder | Kd [1] [nM] | Kd [2] [nM] | EC50 [3] [nM] | EC50 [4] [nM] | EC50 [5] [nM] | EC50 [6] [nM] | binding result [7] | EC50 [8] [nM] | EC50 [9] [nM] | EC50 [10] [nM] | EC50 (polymerized human fibrin) [nM] | IC50 [11] [nM] | binding result [12]
B1 | ~50 | ~200 | 160 | 60 | 190 | 65 | binds | ~200 | ~65 | 150 | 150 | 300 | –
B2 | – | – | – | – | – | – | – | – | – | – | – | – | binds
